These are literature values, as cited in paper PMC10747851.

pKd: −log10 of the molar value.

Usually pKd stands for the Kd on a negative log10 scale, so that one unit is a factor of ten.

This data set concerns the target TfR (Homo sapiens) (UniProt P02786).

TfR (Homo sapiens), sequence (P02786 89-760): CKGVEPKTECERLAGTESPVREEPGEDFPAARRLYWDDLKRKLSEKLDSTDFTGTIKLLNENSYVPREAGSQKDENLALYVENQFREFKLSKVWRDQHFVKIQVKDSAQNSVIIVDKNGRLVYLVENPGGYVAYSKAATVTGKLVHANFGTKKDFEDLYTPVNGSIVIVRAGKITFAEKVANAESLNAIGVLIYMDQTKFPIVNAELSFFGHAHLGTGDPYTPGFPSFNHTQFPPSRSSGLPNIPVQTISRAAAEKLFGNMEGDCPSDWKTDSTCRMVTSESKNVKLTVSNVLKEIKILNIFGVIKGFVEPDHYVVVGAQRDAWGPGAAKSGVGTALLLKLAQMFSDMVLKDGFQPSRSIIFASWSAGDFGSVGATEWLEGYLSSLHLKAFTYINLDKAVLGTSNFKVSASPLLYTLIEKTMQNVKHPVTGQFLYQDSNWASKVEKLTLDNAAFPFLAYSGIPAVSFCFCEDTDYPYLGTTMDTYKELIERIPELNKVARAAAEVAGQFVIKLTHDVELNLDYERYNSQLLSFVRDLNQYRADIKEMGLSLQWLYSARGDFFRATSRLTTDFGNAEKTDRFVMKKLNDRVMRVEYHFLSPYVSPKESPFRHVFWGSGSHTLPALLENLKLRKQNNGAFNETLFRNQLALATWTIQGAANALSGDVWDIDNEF

For T7 peptide, the pKd was 8.00.
